# Data as given in patent US6013515, “Cofactors for HIV-1 protein Tat and methods of use therefor” (The Rockefeller University, dated 2000).
# B1: Tat-interacting protein 30 (TIP30), endogenous 30 kDa protein from HeLa extract (other)
# chain: AETEALSKLREDFRMQNKSVFILGASGETGRVLLKEILEQGLFSKVTLIGRRKLTFDEEAYKNVNQEVVDFEKLDDYASAFQGHDVGFCCLGTTRGKAGAEGFVRVDRDYVLKSAELAKAGGCKHFNLLSSKGADKSSNFLYLQVKGEVEAKVEELKFDRYSVFRPGVLLCDRQESRPGERLVRKFFGSLPDSWASGHSVPVVTVVRAMLNNVVRPRDKQMELLENKAIHDLGKAHGSLKP
# B2: TIP1 expressed in HeLa cells from pcDNA3.1TIP1 (other)
# chain: MAETEALSKLREDFRMQNKSVFILGASGETGRVLLKEILEQGLFSKVTLIGRRKLTFDEEAYKNVNQEVVDFEKLDDYASAFQGHDVGFCCLGTTRGKAGAEGFVRVDRDYVLKSAELAKAGGCKHFNLLSSKGADKSSNFLYLQVKGEVEAKVEELKFDRYSVFRPGVLLCDRQESRPGERLVRKFFGSLPDSWASGHSVPVVTVVRAMLNNVVRPRDKQMELLENKAIHDLGKAHGSLKP
# Columns and labels:
# [1] = target: GST (glutathione S-transferase) control column (Schistosoma japonicum (Blood fluke), UniProt P08515 = GST); assay: affinity chromatography of HeLa whole cell extract, SDS-PAGE, silver stain
# [2] = target: HIV-1 Tat (HIV-1, UniProt P04608); assay: cell-based or functional assay
Binder,binding result [1],CAT expression from HIV-1 LTR-CAT reporter in cotransfected HeLa cells [2]
B1,no binding,
B2,,8.9 fold
